In data set [1] the target is T1, snRNP total proteins (TPs; seven Sm proteins plus U1 snRNP proteins) (Homo sapiens, UniProt P14678;P62314;P62316;P62318;P62304;P62306;P62308;P08621;P09012;P09234 …). The experiment in a line: pulldown; Sm core assembly, Y12 IP. Conditions: tags: anti-TMG immunopurified from HeLa; label: 32P-UTP.
The target of data set [2] is T1, snRNP total proteins (TPs; seven Sm …). The experiment in a line: pulldown; Y12 IP; phosphorothioate interference at U92, C86, G109, none in Sm site. The note with it: tags: anti-TMG immunopurified from HeLa; label: 32P-UTP.

Turning to AUCUUUG (ssRNA, [none]) [HSUR5-60 Sm U2C], the binding result in data set [1] is “binds”.
On to ACUUUUG (ssRNA, [none]) [HSUR5-60 Sm U1C], for which, in data set [1], the binding result was “binds”.
Take AUUUUUG (ssRNA) [HSUR5-60 (nt 60-114)]: the binding result in data set [2] is on record as “binds”.
With AUUCUUG (ssRNA, [none]) [HSUR5-60 Sm U3C], the binding result in data set [1] was “binds”.
The same measure, in the same setting: as for AUUUCUG (ssRNA, [none]) [HSUR5-60 Sm U4C], the entry is “binds”.
